In paper PMC5764468 (PLoS Biology, 2017):

Target: T1, Human calmodulin (CaM) (human, UniProt P0DP23 1-149)
T1 construct: also called full-length CaM
Assay: SEC-SAXS
Conditions: both partners purified

B1: CaM-binding peptide (P_(MLCK)) from the smooth muscle myosin light-chain kinase (peptide)
peptide: Ac-RRKWQKTGHAVRAIGRLSS-NH2
notes: also called myosin light-chain kinase peptide; MLCK peptide
- stoichiometry N: 1 P_(MLCK) per CaM
